Assay results reported in patent publication US20190225658A1.

What was measured:
Kir3.1/Kir3.4 channel [1] = assay: cell-based or functional assay
Kir3.1/Kir3.4 channel [2] = assay: flow cytometry, HEK cells stably transfected with Kir3.1/3.4, labeled with 10 nM; unlabeled cells 162 A.U.
Kir3.1/Kir3.4 channel [3] = assay: flow cytometry dose response curve of binding on HEK cells stably transfected with Kir3.1/3.4

Chain of Kir3.1/Kir3.4 channel (P48549 whole entry, chain 1 of 2): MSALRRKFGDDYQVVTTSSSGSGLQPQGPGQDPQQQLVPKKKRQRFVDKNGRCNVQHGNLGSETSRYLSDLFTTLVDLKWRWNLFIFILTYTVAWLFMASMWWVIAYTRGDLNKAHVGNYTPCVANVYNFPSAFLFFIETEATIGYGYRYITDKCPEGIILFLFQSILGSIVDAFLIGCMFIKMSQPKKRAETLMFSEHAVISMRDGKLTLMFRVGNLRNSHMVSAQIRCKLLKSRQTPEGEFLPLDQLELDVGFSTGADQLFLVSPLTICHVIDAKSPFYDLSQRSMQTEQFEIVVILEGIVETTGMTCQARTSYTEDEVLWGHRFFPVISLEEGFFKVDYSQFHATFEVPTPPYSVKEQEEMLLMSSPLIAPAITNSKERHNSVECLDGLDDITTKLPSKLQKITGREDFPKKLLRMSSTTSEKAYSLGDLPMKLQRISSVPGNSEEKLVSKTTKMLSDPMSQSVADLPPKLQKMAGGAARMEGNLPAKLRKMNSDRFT
Chain of Kir3.1/Kir3.4 channel (P48544 whole entry, chain 2 of 2, further chain): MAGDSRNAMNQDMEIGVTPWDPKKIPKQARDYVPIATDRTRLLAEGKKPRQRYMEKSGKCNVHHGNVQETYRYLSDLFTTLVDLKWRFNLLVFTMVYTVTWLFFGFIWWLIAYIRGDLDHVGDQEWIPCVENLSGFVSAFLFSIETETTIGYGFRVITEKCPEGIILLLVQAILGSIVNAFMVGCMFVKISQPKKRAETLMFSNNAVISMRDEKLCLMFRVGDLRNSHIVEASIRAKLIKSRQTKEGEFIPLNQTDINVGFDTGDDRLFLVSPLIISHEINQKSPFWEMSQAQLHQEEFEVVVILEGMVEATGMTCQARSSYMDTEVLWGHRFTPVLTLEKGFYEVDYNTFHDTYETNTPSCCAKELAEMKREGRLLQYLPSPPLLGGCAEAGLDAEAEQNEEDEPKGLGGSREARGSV

Substance	IKACh block, patch clamp, dose response curve (Kir3.1/Kir3.4 channel [1])	median fluorescence (Kir3.1/Kir3.4 channel [2])	IC50 (Kir3.1/Kir3.4 channel [3])
TertiapinQ (peptide)	70 nM		
TertiapinQ labeled with ATT0633 (peptide)		3840 A.U.	0.011 µM
TertiapinQ peptibody (Fc fusion)	16 nM		
